Measured values published in PMC4909301, “Fibulin-5 Regulates Angiopoietin-1/Tie-2 Receptor Signaling in Endothelial Cells” (PLoS ONE, 2016).

Target: T1, recombinant human Tie-2/Fc chimera (human, UniProt Q02763 23-748)
T1 construct: TIE-2 receptor tyrosine kinase, human, part fused to Fc in R&D Systems Cat. #313-TI-100; source: bought: R&D Systems
Assay: ELISA; solid-phase binding assay; TIE-2/Fc (4.0 ug/ml) or Fibulin-5 (20 ug/ml) coated on 96-well plates; 1:2 serial dilutions of soluble Ang-1 in 2% non-fat milk in TBS, 1 hr, room temperature; detected with Ang-1 antibody
Conditions: both partners purified

T1 sequence (Q02763 23-748, change not shown): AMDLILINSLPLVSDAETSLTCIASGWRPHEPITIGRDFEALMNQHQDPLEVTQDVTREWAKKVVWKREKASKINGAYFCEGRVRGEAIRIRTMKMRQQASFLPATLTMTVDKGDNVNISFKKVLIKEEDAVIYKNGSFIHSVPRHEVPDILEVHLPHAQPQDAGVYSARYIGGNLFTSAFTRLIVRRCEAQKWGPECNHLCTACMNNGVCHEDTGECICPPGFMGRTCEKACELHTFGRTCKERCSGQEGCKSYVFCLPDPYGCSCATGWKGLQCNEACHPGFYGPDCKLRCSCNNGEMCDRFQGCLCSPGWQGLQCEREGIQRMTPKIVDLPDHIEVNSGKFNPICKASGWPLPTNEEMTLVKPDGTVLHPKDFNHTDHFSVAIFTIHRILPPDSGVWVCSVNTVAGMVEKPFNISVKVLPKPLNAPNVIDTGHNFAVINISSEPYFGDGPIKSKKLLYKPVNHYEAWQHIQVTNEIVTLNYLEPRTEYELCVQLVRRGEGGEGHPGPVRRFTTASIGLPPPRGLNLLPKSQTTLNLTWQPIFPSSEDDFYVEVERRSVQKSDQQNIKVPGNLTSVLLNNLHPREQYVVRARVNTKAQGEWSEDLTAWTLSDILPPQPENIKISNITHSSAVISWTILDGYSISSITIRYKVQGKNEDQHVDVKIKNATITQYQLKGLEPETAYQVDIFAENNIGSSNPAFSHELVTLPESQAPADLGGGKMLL

- binding result: binds
B1: recombinant human Ang-1 (angiopoietin-1) (ligand, UniProt Q15389 16-498, looked up)
chain: HIGCSNQRRSPENSGRRYNRIQHGQCAYTFILPEHDGNCRESTTDQYNTNALQRDAPHVEPDFSSQKLQHLEHVMENYTQWLQKLENYIVENMKSEMAQIQQNAVQNHTATMLEIGTSLLSQTAEQTRKLTDVETQVLNQTSRLEIQLLENSLSTYKLEKQLLQQTNEILKIHEKNSLLEHKILEMEGKHKEELDTLKEEKENLQGLVTRQTYIIQELEKQLNRATTNNSVLQKQQLELMDTVHNLVNLCTKEGVLLKGGKREEEKPFRDCADVYQAGFNKSGIYTIYINNMPEPKKVFCNMDVNGGGWTVIQHREDGSLDFQRGWKEYKMGFGNPSGEYWLGNEFIFAITSQRQYMLRIELMDWEGNRAYSQYDRFHIGNEKQNYRLYLKGHTGTAGKQSSLILHGADFSTKDADNDNCMCKCALMLTGGWWFDACGPSNLNGMFYTAGQNHGKLNGIKWHYFKGPSYSLRSTTMMIRPLDF
notes: angiopoietin-1, human, recombinant, R&D Systems Cat. #923-AN/CF; The introduction calls angiopoietins oligomeric glycoproteins; source: bought: R&D Systems
